Experiments:
[1] = target: T1, SARS-CoV-2 spike protein (full length, wild type) (SARS-CoV-2, UniProt P0DTC2 14-1273); experiment: cell-based or functional assay
[2] = target: T2, SARS-CoV-2 spike receptor binding domain (RBD) (SARS-CoV-2, UniProt P0DTC2 319-541); experiment: RBD/ACE2 competition; RBD binding to ACE2 on HEK-293 cells
T2 construct: also called SARS-CoV RBD

[3] = target: T2, SARS-CoV-2 spike receptor binding …; experiment: as above; remark: listed apart in the source
[4] = target: T1, SARS-CoV-2 spike protein (full length, …); experiment: cell-based or functional assay; remark: listed apart in the source

Binder	EC50 (pM) [1] [pM]	ACE2 Inhibition (%) [2] [%]	ACE2 binding [% inhibition] [3] [%]	Inhibition: EC50 [pM] [4] [pM]
SARS2-1G9_f3 (antibody, V domains shown, also called antibody number 5) VH: QVQLVQSGAEVKKPGASVKVSCKASGYTFTSYDIIWVRQATGQGLEWMGWMSPNSGNTGYAQKFQGRVTMTRNTSISTAYMELSSLRSEDTAVYYCARFGYGSGALDYYYYGLDVWGQGTTVTVSS VL: not shown	145	96	96	–
SARS2-16C12_f3 (antibody, V domains shown, also called antibody number 16; family B) VH: QVQLVQSGAEVKKPGASVKVSCKASGYTFTSYDIIWVRQATGQGLEWMGWMSPNSGNTGYAQKFQGRVTMTRNTSISTAYMELSSLRSEDTAVYYCARFGYGSGALDYYYYGLDVWGQGTTVTVSS VL: not shown	59	87	87	–
SARS2-16C5_f3 (antibody, V domains shown, also called antibody number 15; family B) VH: QVQLVQSGAEVKKPGASVKVSCKASGYTFTSYDIIWVRQATGQGLEWMGWMSPNSGNTGYAQKFQGRVTMTRNTSIGTAYMELSSLRSEDTAVYFCARFGYGSGALDYYYYGLDVWGQGTTVTVSS VL: EIVLTQSPGTLSLSPGERATLSCRASQSVRSSHLAWYQQKPGQAPRLLIYGASSRATGIPDRFSGSGSGTDFTLTISRLEPEDFAVYYCQQYNNSPITFGQGTRLEIK	107	94	94	–
11G2_f3 (antibody, V domains shown, also called SARS2-11G2_S; antibody number 13) VH: QVQLVQSGAEVKKPGASVKVSCKASGYTFTSYDITWVRQATGQGLEWMGWMSPNSGNTGYAQKFQGRVSMTRNTSISTAYMELSSLRSEDTAVYYCARFGYGSGALDYYYYGLDVWGQGTTVTVSS VL: EIVLTQSPGTLSLSPGERATLSCRASQSVRNSHLAWYQQKPGQAPRLLIYGASSRATGIPDRFSGSGSGTDFTLTISRLEPEDFAVYYCQQFGSSPITFGQGTRLEIK	74	90	90	109
SARS2-5D7_f3 (antibody, V domains shown, also called antibody number 6) VH: QVQLVQSGAEVKKPGTSVKVSCKTSGYTFTSYDIIWVRQATGQGLEWMGWMSPKNGNTGYAQRFQGRVTMTRNTSISTAYMELSSLRSEDTAVYYCARFGYGSGALDYYYYGLDVWGQGTTVTVSS VL: EIVLTQSPGTLSLSPGERATLSCRASQSVRSSHLAWYRQKPGQAPRLLIYGASSRATGIPDRFSGRGSGTDFTLTISRLEPEDFAVYYCQQYNISPITFGQGTRLEIK	284	97	97	–
SARS2-18E7_f3 (antibody, V domains shown, also called antibody number 19) VH: QVQLVQSGAEVKKPGASVTVSCKASGYTFTSYDIIWVRQATGQGLEWMGWMSPNSGNTGYAQRFQGRVTMTRNTSISTAYMELSSLRSEDTAVYYCARFGYGSGALDYYYYGLDVWGQGTTVTVSS VL: not shown	62	82	82	–
SARS2-1C12_f3 (antibody, V domains shown, also called antibody number 1) VH: QVQLVQSGAEVKKPGASVKVSCKASGYTFTSYDITWVRQATGQGLEWMGWMSPNSGNTGYTQKFQGRVTMTRNTSISTAYMELSSLRSEDTAVYYCARFGYGSGALDYYYYGLDVWGQGTTVTVSS VL: EIVLTQSPGTLSLSPGERATLSCRASQSVRSSHLAWYQQKPGQAPRLLIYGASSRATGIPDRFSGSGSGTDFTLTISRLEPEDFAVYYCQQYNNSPITFGQGTRLEIK	75	88	88	–
SARS2-1D5_f3 (antibody, V domains shown, also called antibody number 2) VH: QVQLVQSGAEVKKPGASVKVSCKASGYTFTSYDITWVRQATGQGLEWMGWMSPNSGNTGYAQKFQGRVTMTRNTSISTAYMELNSLRSEDTAVYYCARFGYGSGALDYYYYGLDVWGQGTTVTVSS VL: EIVLTQSPGTLSLSPGDRATLSCRASQSVRSSHLAWYQQKPGQAPRLLIYGASSRATGIPDRFSGSGSGTDFSLTISRLEPEDFAVYYCQQFGSSPITFGQGTRLEIK	49	94	94	94
SARS2-17F2_f3 (antibody, V domains shown, also called antibody number 18) VH: QVQLVQSGAEVKRPGASVKVSCKASGYTFTSYDITWVRQATGQGLEWMGWMSPDSGNTGYAQRFQGRVTMTRNTSISTAYMELSSLRSEDTAVYYCARFGYGSGALDYYYYGLDVWGQGTTVTVSS VL: EIVLTQSPGTLSLSPGERATLSCRASQSVRSSHLAWYQQKPGQAPRLLIYGASSRATGIPDRFSGSGSGTDFTLTISRLEPEDFAVYYCQQYNSSPITFGQGTRLEIK	151	65	65	–
SARS2-9C6_f3 (antibody, V domains shown, also called antibody number 10) VH: QVQLVQSGAEVKKPGASVKVSCKASGYTFTSYDITWVRQATGQGLEWMGWMSPKSGNTGYAQKFQGRVTMTRNTSISTAYMELSSLRSEDTAVYYCARFGYGSGALDYYYYGLDVWGQGTTVTVSS VL: EIVLTQSPGTLSLSPGERATLSCRASQSVRSSHLAWYRQKPGQAPRLLIYGASSRATGIPDRFSGRGSGTDFTLTISRLEPEDFAVYYCQQYNSSPITFGQGTRLEIK	105	85	85	–
SARS2-5H12_f3 (antibody, V domains shown, also called antibody number 7) VH: QVQLVQSGAEVKKPGTSVKVSCKTSGYTFPSYDIIWVRQATGQGLEWMGWMSPKNGNTGFAQRFQGRVTMTRNTSISTAYMELSSLRSEDTAVYYCARFGYGSGALGYYYYGLDVWGQGTTVTVSS VL: EIVLTQSPGTLSLSPGERATLSCRASQSVRSSHLAWYRQKPGQAPRLLIYGASSRATGIPDRFSGRGSGTDFTLTISRLEPEDFAVYYCQQYNFSPITFGQGTRLEIK	377	100	100	–
SARS2-8H4_f3 (antibody, V domains shown, also called antibody number 9) VH: QVQLVQSGAEVKKPGASVKVSCKASGYTFTSYDITWVRQATGQGLEWMGWMSPNSGNTGYAQKFQGRVTMTRNTSISTAYMELSSLRSEDTAVYYCARFGYGSGALDYYYYGLDVWGQGTTVTVSS VL: EIVLTQSPGTLSLSPGERATLSCRASQSVRSSHLAWYQQKPGQAPRLLIYGASSRATGIPDRFSGSGSGTDFTLTISRLEPEDFAVYYCQQFGSSPITFGQGTRLEIK	100	93	93	–
SARS2-7C10_f3 (antibody, V domains shown, also called antibody number 8) VH: QVQLVQSGAEVKKPGASVKVSCKASGYTFTSYDITWVRQATGQGLEWMGWMSPNSGNTGYAQKFQGRVTMTRNTSISTAYMELRSLRSEDTAVYYCARFGYGSGALDYYYYGLDVWGQGTTVTVSS VL: EIVLTQSPGTLSLSPGERATLSCRASQSVRSSHLAWSQQKPGQAPRLLIYGASSRATGIPDRFSGSGSGTDFTLTISRLEPEDFAVYYCQQFGSSPITFGQGTRLEIK	152	85	85	–
SARS2-1D10_f3 (antibody, V domains shown, also called antibody number 3) VH: QVQLVQSGAEVKKPGASVKVSCKASGYTFTSYDIIWVRQASGQGLEWMGWMSPNSGNTGYAQKFQGRVTMTRNTSINTAYMELSSLRSEDTAVYYCARFGYGSGALDYYYYGLDVWGQGTTVTVSS VL: not shown	47	95	95	–
SARS2-17A8_f3 (antibody, V domains shown, also called antibody number 17) VH: QVQLVQSGAEVKKPGASVKVSCKASGYTFTSYDIIWVRQATGQGLEWMGWMSPNSGNTGYAQKFQGRVTMTKNTSISTAYMELSSLRSEDTAVYYCARFGYGSGALDYYYYGLDVWGQGTTVTVSS VL: not shown	59	98	98	–
SARS2-1E2_f3 (antibody, V domains shown, also called antibody number 4) VH: QVQLVQSGAEVKKPGASVKVSCKASGYTFTSYDITWVRQATGQGLEWMGWMSPNSGNTGYAQKFQGRVTMTRNTSISTAYMELSSLRSEDTAVYYCARFGYGSGALDYYYYGLDVWGQGTTVTVSS VL: EIVLTQSPGTLSLSPGERATLSCRASQSVRSSHFAWYQQKPGQAPRLLIYGASSRATGIPDRFSGSGSGTDFTLTISRLEPEDFAVCYCQQYGSSPITFGQGTRLEIK	218	86	86	–
SARS2-10D6_f3 (antibody, V domains shown, also called antibody number 11; family A) VH: EVQLVETGGGLIQPGGSLRLSCAASGITVSSNYMNWVRQAPGKGLEWVSVIYSGGSTYYADSVKGRFTISRDNSKNTLYLQMNSLRAEDTAVYYCARDLELAGAFDIWGQGTMVTVSL VL: DIQLTQSPSFLSASVGDRVTITCRASQGISSYLAWYQQKPGKAPKVLIYAASTLQSGVPSRFSGSGSGTEFTLTISSLQPEDFATYYCQQLNSYPPSTFGQGTKLEIK	1020	81	81	–
SARS2-11D5_f3 (antibody, V domains shown, also called antibody number 12) VH: EVQLVETGGGLIQPGGSLRLSCAASGITVSSNYMSWVRQAPGKGLEWVSVIYSGGSTYYADSVKGRFTISRDNSKNTLYLQMNSLRAEDTAVYYCARDLAVAGAFDIWGQGTMVTVSL VL: DIQLTQSPSFLSASVGDRVTITCRASQGISSYLAWYQQKPGKAPKVLIYAASTLQSGVPSRFSGSGSGTEFTLTISSLQPEDFATYYCQQLNSYPPSTFGQGTKLEIK	440	66	66	–
SARS2-19C4_f3 (antibody, V domains shown, also called antibody number 20; family A) VH: EVQLVETGGGLIQPGGSLRLSCAASGITVSSNYMNWVRQAPGKGLEWVSVIYSGGSTFYADSVKGRFTISRDNSKNTLYLQMNSLRAEDTAVYYCARDLEVAGGFDIWGQGTMVTVSL VL: DIQLTQSPSFLSASVGDRVTITCRASQGISSYLAWYQQKPGKAPKVLIYAASTLQSGVPSRFSGSGSGTKFTLTISSLQPEDFATYYCQQLNSFPPSTFGQGTKLEIK	492	89	89	–
